# T1: PGC7 D9 (human, UniProt Q6W0C5 20-95)
# T1 sequence: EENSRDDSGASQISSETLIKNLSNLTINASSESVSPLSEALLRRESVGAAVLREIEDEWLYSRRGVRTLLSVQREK
# T2: PGC7 (Dppa3/Stella) (human, UniProt Q6W0C5 1-159)
# T2 sequence: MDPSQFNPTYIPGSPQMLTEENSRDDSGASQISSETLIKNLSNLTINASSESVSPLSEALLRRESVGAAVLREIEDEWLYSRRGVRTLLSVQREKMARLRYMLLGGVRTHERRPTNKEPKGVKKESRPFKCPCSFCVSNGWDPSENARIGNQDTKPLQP
# B1: PGC7 motif 50-mer (dsDNA)
# DNA 1: GAGTAAGATCATGCCACTGCACTTCAGCCTGGGCACAGAGTGAGGCTGGG
# DNA 2: CCCAGCCTCACTCTGTGCCCAGGCTGAAGTGCAGTGGCATGATCTTACTC
# Assays:
# PGC7 D9 = molecular target: T1, PGC7 D9; assay: EMSA
# PGC7 (Dppa3/Stella) = molecular target: T2, PGC7 (Dppa3/Stella); assay: EMSA
binder,measurement,setting,value
B1,binding result,PGC7 D9,binds
same,binding result,PGC7 (Dppa3/Stella),binds
